For the assay, the target named is T1, CD20 (human, UniProt P11836 1-297).
T1 chain: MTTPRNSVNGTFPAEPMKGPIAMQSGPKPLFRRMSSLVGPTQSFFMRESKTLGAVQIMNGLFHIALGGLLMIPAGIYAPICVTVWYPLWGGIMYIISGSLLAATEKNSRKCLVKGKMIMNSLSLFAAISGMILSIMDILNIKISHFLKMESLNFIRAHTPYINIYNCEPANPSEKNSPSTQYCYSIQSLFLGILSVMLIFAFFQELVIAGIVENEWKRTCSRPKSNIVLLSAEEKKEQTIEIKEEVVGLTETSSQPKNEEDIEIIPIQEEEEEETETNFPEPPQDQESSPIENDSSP
The assay can be described thus: FACS binding; Ramos cells.

Drawing on patent US20160280794A1 (published 2016), this text covers EC50 for 1 molecule.

B1: Rituximab (antibody)
chain 1: not shown
chain 2: QIVLSQSPAILSASPGEKVTMTCRASSSVSYIHWFQQKPGSSPKPWIYATSNLASGVPVRFSGSGSGTSYSLTISRVEAEDAATYYCQQWTSNPPTFGGGTKLEIKRTVAAPSVFIFPPSDEQLKSGTASVVCLLNNFYPREAKVQWKVDNALQSGNSQESVTEQDSKDSTYSLSSTLTLSKADYEKHKVYACEVTHQGLSSPVTKSFNRGEC
On to B1, for which the EC50 – broadly, the concentration giving half of the maximal effect – was 1.13 µg/mL.
